Source: article PMC5832849

Target: scFvD8 mutant (scFvD8-M), L96Tyr to Ser and H98Asp to Ser (mouse)
Assay: ELISA; competitive: scFv at 0.5 nM pre-incubated with preS1 recombinant protein (1000 to 0.01 nM in PBST) at 37 °C for 1 h, then added to plates coated with 100 nM preS1, room temperature 30 min; detected with HRP-labelled anti-SUMO antibody; relative affinity

Sequence of scFvD8 mutant (scFvD8-M), L96Tyr to Ser and H98Asp to Ser (mouse) (heavy, as listed by the source, chain 1 of 2): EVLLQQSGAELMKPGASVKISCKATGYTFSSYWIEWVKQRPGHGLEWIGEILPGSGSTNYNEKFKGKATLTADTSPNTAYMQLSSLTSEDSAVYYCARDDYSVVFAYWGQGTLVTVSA
Sequence of scFvD8 mutant (scFvD8-M), L96Tyr to Ser and H98Asp to Ser (mouse) (light, as listed by the source, chain 2 of 2): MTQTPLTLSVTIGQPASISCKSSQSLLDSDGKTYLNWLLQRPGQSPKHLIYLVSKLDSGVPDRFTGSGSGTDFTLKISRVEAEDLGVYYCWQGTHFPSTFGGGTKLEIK

“HBV preS1 recombinant protein (domain or fragment)” was tested, and the relative affinity (concentration at 50% protein binding saturation) was 5 nM.
